Test results: patent publication US20050208048A1

Biological target: human HLA-DR on cells (DRβ1 allele not stated) (human)
Experiment: cell-based or functional assay

B1: HLA-DR-specific monoclonal antibody L243 (antibody, from another filing, V domains shown)
VH: QIQLVQSGPELKKPGETVKISCKASGFTFTNYGMNWVKQAPGKGLKWMGWINTYTREPTYADDFKGRFAFSLETSASTAYLQINNLKNEDTAKYFCARDITAVVPTGFDYWGQGTTLTVSS
VL: DIQMTQSPASLSVSVGETVTITCRASENIYSNLAWYRQKQGKSPQLLVFAASNLADGVPSRFSGSGSGTQYSLKINSLQSEDFGDYYCQHFWTTPWAFGGGTNLEIKR
suppression of SEB-triggered T cell proliferation ([3H]thymidine): 70%

B2: murine/human chimeric DN1924 HLA-DR-specific monoclonal antibody (antibody, human IgG2, kappa)
heavy: EVKLLESGGGLVQPGGSLKLSCAASGFDFSRYWMSWVRQAPGKGLEWIGEINPDSSTINYTPSLKDKFIISRDNAKNTLYLQMSKVRSEDTALYYCARQPYYYGSSYWYFDVWGAGTTVTVSSAASTKGPSVFPLAPCSRSTSESTAALGCLVKDYFPEPVTVSWNSGALTSGVHTFPAVLQSSGLYSLSSVVTVTSSNFGTQTYTCNVDHKPSNTKVDKTVERKCCVECPPCPAPPAAAPSVFLFPPKPKDTLMISRTPEVTCVVVDVSHEDPEVQFNWYVDGMEVHNAKTKPREEQFNSTFRVVSVLTVVHQDWLNGKEYKCKVSNKGLPAPIEKTISKTKGQPREPQVYTLPPSREEMTKNQVSLTCLVKGFYPSDIAVEWESNGQPENNYKTTPPMLDSDGSFFLYSKLTVDKSRWQQGNVFSCSVMHEALHNHYTQKSLSLSPGK
light: ETTVTQSPASLSMAIGEKVTIRCITSTDIDDDMNWYQQKPGEPPKLLISEGNTLRPGVPSRFSSSGYGTDFVFTIENMLSEDVADYYLQSDNLPYTFGGGTKLEIKTVAAPSVFIFPPSDEQLKSGTASVVCLLNNFYPREAKVQWKVDNALQSGNSQESVTEQDSKDSTYSLSSTLTLSKADYEKHKVYACEVTHQGLSSPVTKSFNRGEC
% Annexin V Propidium Iodide Positive, antibody at 5 µg/ml, with Z-VAD-fmk: 52.7%
% Annexin V Propidium Iodide Positive, antibody at 5 µg/ml, without Z-VAD-fmk: 57.4%
